From patent US20120301476A1 (TORAY INDUSTRIES, published 2012)
Each block holds one binder with its values, some of them ahead of it.

How the values were obtained:
[1] = target: T1, human CAPRIN-1 protein on the cell surfaces of human cancer cell lines and in human cancer tissues (human, UniProt Q14444 2-709); assay: cell-based or functional assay
T1 sequence (looked up): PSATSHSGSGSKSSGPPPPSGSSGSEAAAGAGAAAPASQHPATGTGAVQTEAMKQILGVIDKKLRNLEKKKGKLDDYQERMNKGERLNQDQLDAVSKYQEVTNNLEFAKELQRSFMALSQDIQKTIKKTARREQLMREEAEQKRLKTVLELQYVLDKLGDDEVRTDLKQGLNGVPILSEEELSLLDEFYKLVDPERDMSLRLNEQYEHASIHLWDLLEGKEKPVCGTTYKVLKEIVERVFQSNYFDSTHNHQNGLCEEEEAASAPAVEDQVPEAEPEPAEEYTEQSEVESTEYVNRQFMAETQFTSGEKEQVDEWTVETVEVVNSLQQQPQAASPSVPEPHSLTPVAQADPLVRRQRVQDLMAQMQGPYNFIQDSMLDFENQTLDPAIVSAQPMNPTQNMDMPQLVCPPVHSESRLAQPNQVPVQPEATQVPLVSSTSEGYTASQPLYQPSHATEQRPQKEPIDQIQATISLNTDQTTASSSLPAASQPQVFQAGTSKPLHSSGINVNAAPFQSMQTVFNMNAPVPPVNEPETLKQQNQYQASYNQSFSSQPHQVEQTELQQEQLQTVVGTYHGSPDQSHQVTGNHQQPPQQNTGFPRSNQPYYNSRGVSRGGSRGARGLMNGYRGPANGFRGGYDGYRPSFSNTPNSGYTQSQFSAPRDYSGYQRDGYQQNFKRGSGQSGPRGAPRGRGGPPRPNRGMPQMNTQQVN

[2] = target: T2, peptide of SEQ ID NO: 70 (partial sequence in the polypeptide of SEQ ID NO: 37) (human); assay: ELISA on immobilised synthetic peptides
T2 peptide: FTSGEKEQVDEW
Experimental: (§1) Each peptide was dissolved in 0.1M sodium carbonate buffer (pH 9.6) at a concentration of 30 μg/ml, added to a 96-well plate (Nunc, Product No. 436006) at 100 μl per well, and then left to stand at 4° C. overnight. The solution was discarded, 10 mM ethanolamine/0.1M sodium carbonate buffer (PH 9.6) was added at 200 μl per well, and then the plate was left to stand at room temperature for 1 hour. The solution was discarded, the plate was washed twice with PBS (PBST) containing 0.5% Tween20, so that the plate with each peptide immobilized thereto was prepared.
(§2) A cell culture supernatant containing the human-chicken chimeric monoclonal antibody (#1) and the mouse monoclonal antibodies (#2, #3, #4, #5, and #6) obtained in Example 4 (2) was added to the plate at 50 μl per well. After 1 hour of shaking at room temperature, the solution was removed, and then the plate was washed three times with PBST. Next, an HRP-labeled anti-human IgG (Invitrogen) antibody diluted 3000- to 4000-fold with PBST (a secondary antibody solution) was added to each well of the human-chicken chimeric monoclonal antibody and an HRP-labeled anti-mouse IgG (Invitrogen) antibody diluted 3000- to 4000-fold with PBST (a secondary antibody solution) was added to each well of the mouse monoclonal antibody, at 50 μl per well, and then the solution was removed, followed by six times of washing with PBST.
(§3) A TMB substrate solution (Thermo) was added at 100 μl per well, and the plate was left to stand for 15 to 30 minutes for coloring reaction. After color development, 1N sulfuric acid was added at 100 μl per well to stop the reaction and then absorbances at 450 nm and 595 nm were measured using an absorption spectrometer. As a result, the polypeptide of SEQ ID NO: 37 was identified as a CAPRIN-1 partial sequence that is recognized by all of the anti-CAPRIN-1 monoclonal antibodies #1 to #6. Furthermore, the peptide of SEQ ID NO: 69 was identified as a partial sequence in the above polypeptide of SEQ ID NO: 37, which is recognized by the monoclonal antibodies #1, #4, and #5. […]

[3] = target: T1, human CAPRIN-1 protein on the cell …; assay: flow cytometry on the listed human cancer cell lines, culture supernatant, against negative control
Experimental: 10⁶ cells of each cell line were centrifuged in a 1.5 ml microcentrifuge tube. Each cell culture supernatant (100 μl) of CHO-K1 cells containing #1 obtained in (2) above and hybridomas producing #2, #3, #4, #5, and #6 obtained in Example 3 was added and then left to stand on ice for 1 hour. After washing with PBS, a FITC-labeled goat anti-human IgG (H+L) antibody (SouthernBiotech) and a FITC-labeled anti-mouse IgG (H+L) antibody (Invitrogen) diluted 500-fold with PBS containing 0.1% FBS were added and then left to stand on ice for 1 hour. After washing with PBS, fluorescence intensity was measured using a FACS Calibur (Becton, Dickinson). Meanwhile, procedures similar to the above were performed using a culture supernatant of CHO-K1 cells into which no antibody gene had been introduced and medium for culturing hybridomas, so that a negative control sample was prepared. […] Specifically, when the antibody #1 was used, fluorescence intensity was enhanced to 4700% in the case of SK-BR-3 and 5500% in the case of MDA-MB-231V. Also, when the antibodies #2, #3, #4, #5, and #6 were used, fluorescence intensity was enhanced. […] The percentage of enhancement in the above fluorescence intensity was expressed as percentage of increase in mean fluorescence intensity (MFI level) in each type of cell and calculated by the following formula.

[4] = target: T3, peptide of SEQ ID NO: 69 (partial sequence in the polypeptide of SEQ ID NO: 37) (human); assay: ELISA on immobilised synthetic peptides
T3 peptide: QQPQAASPSVPE
Experimental: as §1, §2, §3

binding result [2]: binds | percentage of increase in mean fluorescence intensity [3]: ≥ 20%
B1: anti-CAPRIN-1 mouse monoclonal antibody #6 (antibody, V domains shown)
VH: DAELVKPGASVKISCKASGYTFTDHSIHWVQQKPEQGLEWIGYISPGNGNIKYNEKFKGKATLTADKSSSTAYMQLNSLTSEDSAVYFCKRSLGRGGPYYFDYWGQGTTVTVSS
VL: DIVLTQAAPSLPVTPGESVSISCRSSKSLLHSNGNTYLYWFLQRPGQSPQLLIYRMSNLASGVPDRFSGSGSGTAFTLRISRVEAEDVGVYYCMQHREYPVTFGSGPN
notes: Mouse hybridoma antibody; detected with anti-mouse IgG
cytotoxic activity (ADCC) against A549 [1]: ≥ 24% | cytotoxic activity (ADCC) against ACHN [1]: ≥ 14% | cytotoxic activity (ADCC) against AML5 [1]: ≥ 10% | cytotoxic activity (ADCC) against Caki-1 [1]: ≥ 23% | cytotoxic activity (ADCC) against KYSE180 [1]: ≥ 22% | cytotoxic activity (ADCC) against MDA-MB-157 [1]: 19% | cytotoxic activity (ADCC) against MNK28 [1]: ≥ 15% | cytotoxic activity (ADCC) against MNK45 [1]: ≥ 10% | cytotoxic activity (ADCC) against QG56 [1]: ≥ 20% | cytotoxic activity (ADCC) against Ramos [1]: ≥ 10% | cytotoxic activity (ADCC) against SW480 [1]: ≥ 17% | cytotoxic activity (ADCC) against SW756 [1]: ≥ 16% | cytotoxic activity (ADCC) against T24 [1]: ≥ 18% | cytotoxic activity (ADCC) against T98G [1]: ≥ 12% | cytotoxic activity (ADCC) against U373 [1]: ≥ 16%

percentage of increase in mean fluorescence intensity [3]: ≥ 20%
B2: anti-CAPRIN-1 mouse monoclonal antibody #4 (antibody, V domains shown)
VH: GAELVRSGASVKMSCKASGYSFTDYNMYWVKQTPGQGLEWIGYIYPGNGGTNYNQKFKGKATLTADTSSSTAYMQISSLTSEDSAVYFCARDYDDGGYAMDYWGQGTTVTVSS
VL: DIQMTQSPASLSASVGETVTITCRASGNIHNYLTWYQQKQGKSPQLLVYNAKTLADGVPSRFSGSGSGTQYSLKINRLQPEDFGSYYCQHFWNIPWTFGGGTKLNSR
cytotoxic activity (ADCC) against A549 [1]: ≥ 24% | cytotoxic activity (ADCC) against ACHN [1]: ≥ 14% | cytotoxic activity (ADCC) against AML5 [1]: ≥ 10% | cytotoxic activity (ADCC) against Caki-1 [1]: ≥ 23% | cytotoxic activity (ADCC) against KYSE180 [1]: ≥ 22% | cytotoxic activity (ADCC) against MDA-MB-157 [1]: 31% | cytotoxic activity (ADCC) against MNK28 [1]: ≥ 15% | cytotoxic activity (ADCC) against MNK45 [1]: ≥ 10% | cytotoxic activity (ADCC) against QG56 [1]: ≥ 20% | cytotoxic activity (ADCC) against Ramos [1]: ≥ 10% | cytotoxic activity (ADCC) against SW480 [1]: ≥ 17% | cytotoxic activity (ADCC) against SW756 [1]: ≥ 16% | cytotoxic activity (ADCC) against T24 [1]: ≥ 18% | cytotoxic activity (ADCC) against T98G [1]: ≥ 12% | cytotoxic activity (ADCC) against U373 [1]: ≥ 16%

binding result [4]: binds | percentage of increase in mean fluorescence intensity [3]: ≥ 20%
B3: anti-CAPRIN-1 mouse monoclonal antibody #5 (antibody, V domains shown)
VH: GAELVRSGASVKMSCKASGYSFTDYNMYWVKQTPGQGLEWIGYIYPGNGGTNYNQKFKGKATLTADTSSSTAYMQISSLTSEDSAVYFCARDYDDGGYAMDYWGQGTTVTVSS
VL: DIQMTQSPASLSASVGETVTITCRASGNIHNYLTWYQQKQGKSPQLLVYNAKTLADGVPSRFSGSGSGTQYSLKINRLQPEDFGSYYCQHFWNIPWTFGGGTKLNSR
notes: as for B1
cytotoxic activity (ADCC) against A549 [1]: ≥ 24% | cytotoxic activity (ADCC) against ACHN [1]: ≥ 14% | cytotoxic activity (ADCC) against AML5 [1]: ≥ 10% | cytotoxic activity (ADCC) against Caki-1 [1]: ≥ 23% | cytotoxic activity (ADCC) against KYSE180 [1]: ≥ 22% | cytotoxic activity (ADCC) against MDA-MB-157 [1]: 30.9% | cytotoxic activity (ADCC) against MNK28 [1]: ≥ 15% | cytotoxic activity (ADCC) against MNK45 [1]: ≥ 10% | cytotoxic activity (ADCC) against QG56 [1]: ≥ 20% | cytotoxic activity (ADCC) against Ramos [1]: ≥ 10% | cytotoxic activity (ADCC) against SW480 [1]: ≥ 17% | cytotoxic activity (ADCC) against SW756 [1]: ≥ 16% | cytotoxic activity (ADCC) against T24 [1]: ≥ 18% | cytotoxic activity (ADCC) against T98G [1]: ≥ 12% | cytotoxic activity (ADCC) against U373 [1]: ≥ 16%

percentage of increase in mean fluorescence intensity [3]: ≥ 20%
B4: anti-CAPRIN-1 mouse monoclonal antibody #3 (antibody, V domains shown)
VH: GGGLVKPGGSLKLSCAASGFTFSSYGMSWVRQTPEKRLEWVATISSGGSYTYYPDSVKGRFTISRDNAKNTLYLQMSSLRSEDTAMYYCASLASYYFDYWGQGTTLTVSS
VL: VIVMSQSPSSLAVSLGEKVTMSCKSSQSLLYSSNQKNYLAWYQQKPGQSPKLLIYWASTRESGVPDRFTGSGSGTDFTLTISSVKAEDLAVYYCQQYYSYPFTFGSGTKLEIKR
cytotoxic activity (ADCC) against A549 [1]: ≥ 24% | cytotoxic activity (ADCC) against ACHN [1]: ≥ 14% | cytotoxic activity (ADCC) against AML5 [1]: ≥ 10% | cytotoxic activity (ADCC) against Caki-1 [1]: ≥ 23% | cytotoxic activity (ADCC) against KYSE180 [1]: ≥ 22% | cytotoxic activity (ADCC) against MDA-MB-157 [1]: 32.4% | cytotoxic activity (ADCC) against MNK28 [1]: ≥ 15% | cytotoxic activity (ADCC) against MNK45 [1]: ≥ 10% | cytotoxic activity (ADCC) against QG56 [1]: ≥ 20% | cytotoxic activity (ADCC) against Ramos [1]: ≥ 10% | cytotoxic activity (ADCC) against SW480 [1]: ≥ 17% | cytotoxic activity (ADCC) against SW756 [1]: ≥ 16% | cytotoxic activity (ADCC) against T24 [1]: ≥ 18% | cytotoxic activity (ADCC) against T98G [1]: ≥ 12% | cytotoxic activity (ADCC) against U373 [1]: ≥ 16%
